Assay: yeast display, Sf9 membrane polyspecificity reagent, FACS + sequencing; frameworks hold sequencing errors
Summary of the method: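 Synthetic nanobody libraries on Saccharomyces cerevisiae BJ5465 were galactose-induced for 36–48 hours, stained 1 hour at 4 °C with 10% biotinylated, detergent-solubilized Sf9 membrane reagent and enriched on streptavidin microbeads. FACS then separated cells into low and high (top ~1%) gates by anti-HA (expression) and streptavidin (reagent binding) fluorescence. Genes were colony-PCR amplified, MiSeq 2 × 250 sequenced and CDR-length filtered. A clone's polyreactivity label is that of its gate of origin.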

Row | Sequence | polyreactivity (PSR sort gate)
1 | QVQLVESGAGLVQAGGSLRLSCAASGRILIIYAMGWYRQAPGKERELVARITYTGGRTYYADSVKGRFTISRDNAKNTVYRQMNSLKPDDTAVYYCATDWSRSDSYSHYDSWVQGTQVTVSS | low polyreactivity
2 | QVQLVESGGGLVQAGGSLRLSCAASGSTFPGYAMGWYRQAPGKERELVAAISWSGGNTYYADSVKGRFTISRDNAKNTVYLQMNSLKPEDTAVYYCNAAGRRYKFDYWGQGTQVSVSS | high polyreactivity
3 | QVQLVESGGGLVQAGRSLRLSCAASGLISRRNAMGWYRQAPGKQRELVAAISTGSSTNYADSVKGRFTISRDNAKNTVYLQMNSLKPEDTAVYYCASTQYWWSTLGIRDDYWGQGTQVTVSS | low polyreactivity
4 | QVQLQESGGGLVQAGGSLRLSCAASGTISYPRTMGWYRQAPGKEREFVAGIGVGGTTYYADSVKGRFTISRDNAKYTVYLQMNILKPEDAAVYYCAVAAYYDKYYVYWGQGTQVTVSF | low polyreactivity
5 | QVQLVESGGGLVQAGGSLRLSCAASGSIFEWYAMGWYRQAPGKERELVADITYNGGSTYYADSVKGRFTISRDNAKNTVYLQMNSLKPEDTAVYYCAADYFVQVPDYYYASEYGYWGQATQVTVSS | low polyreactivity
6 | QEQLQDSGGGLVQAGGSLRLSCAASGYISSLAAMGWYRQAPGKERDLVAGNDLGTITNYADSVKGRLTISRDNAKNNVYLQMNSLKPEDTEVYYCAKYRWYGVYWGQGTHVTVSS | low polyreactivity
7 | QVQLVESGGGLVQAGGSLRLSCAASGFIFAFYDKGWYRQAPGKERELVAAISWGGSTYYADSVKGRVTISRDNAKNTVYLQMNSLKPEDTAVYYCAARLSRSYLYGYWGQGTQVTVSS | high polyreactivity
8 | QVQLVESGGGLVQAGGSLRLSCAASGRIFVGDAMGWYRQAPGTERELVAAISRDGDNTFYADSVKGRFTISRDNAKNTVYLQMNSLKPEDTAVYYCAVDYWVWYGSAYAYDYYWGQGTQVTVSS | low polyreactivity
9 | QVQLVESGGGLVQAGGSLRLSCAASGRTFTFYTMGWYRQAPGKERELVAAITRSGGGTYYADSVKGRFTISRDNAKNTVYLQMNSLKPEDTAVYYCAAYNRNAFHWGQGTQVTVSS | high polyreactivity
10 | QVQLVESGGGLVQAGGSLRLSCAASGRIFKINAMGWYRQAPGKERELVAGISGSGSDTYYSDSVKGRFTISRDNAKNTVYLQMNSLKPEDTAVYYCAAVAYDWALFYYWGQGTQVTVSS | low polyreactivity
11 | QVQLVESGGGLVQAGGSLRLSCAASGFIFRYYTMGWYRQAPGKERELVASISRRGGSTYYADSVKGRFTISRDNAKNIVYVQMNSLKEVDTAVYYCNADRRLGDGYWGQGTQVTVSS | high polyreactivity
12 | QVQLVESGGGLVQAGGSLRLSCAASGRTFRGNVMGWYRQAPGNEREFVAASTRSGSNTYYADSVKGRFTISRDYAKTTVYLQMNSLKPEDTAVYDCAKSVLLGYKRHDSWGQGTQVTVSS | high polyreactivity
13 | QVQLVESGGGLVQAGGSLRLSCAASGSTFYQNAMGWYRQAPGKERELVAAISSRGGSTYYADSVKGRFTISRDNAKNTVYLQMNSLKPEDTAVYYCNTGRGSEMDYWGQGTQVTVSS | high polyreactivity
14 | QVQLVESGGGLVQAGGSLRLSCAASGRIFARNAMGWYRQAPGKESELVAAINWSGGSTYYADSVKGRFTISRDNAKNTVYLQMNSLKPEDTAVYYCATRSSLFRQYLPWYEYWGQGTQVTVSS | low polyreactivity
15 | QVQLVESGGGLVQAGGSLRISCAASGITYKEYAMGWYRQAPGKERELVAAISISGGSTYYADSVKGRFTISRDNAKNTFYLQMNSLKPEDTAVYFCAADYAEYEYGDYYWGQGTQVTVSS | low polyreactivity
16 | QVQLVESGGGLVQAGGSLRLSCAASGSIFVDNAMGWYRQAPGKEREMVAAISRRGGSTYYADSVKGRFTISRDNAKNTVYLQMNSLKPEDTAVYYCNKKNIQFYQGASDYWGQGTQVTVSS | high polyreactivity
17 | QVQLVESGGGLVQAGGSLRLSCAASGRTFGNYVMGWYRQAPGKERELVAAIRSGTNTYYADSVKGRFTISLDNAKNTVYLQMNSLKPEVTAVYYCNKYVRTTDYDYWGQGIQVTVSS | high polyreactivity
18 | QVQLVESGGGLVQAGGSLRLSCAASGSTFVIYDMGWYRQAPGKERELVAAISYSGGSTYYADSVKGRFTISRDNAKNTVYLQMNSLKPEDTAVYYCNAGVLVLLYAYLPSELEYWGQGTQVTVSS | low polyreactivity
19 | QVQLVESGGGLVQAGGSLRLSCAASGFTFSGYDIGWYRQAPGKERELVAGISSGGVSTTYADSVKGRFTISRDNAKNTVYLQMNSLKPEDTAVYYCNAEWTSFDWGQGTQVTVSS | low polyreactivity
20 | QVQIVESGGGLVQAGGSLRLSCAASGRTFIGNVMGWYRQAPGKERELVAAISKSGTRTYYADSVKGRFTISRDNAKNTFYLQMNSLKPEDTAVYYCAKDHYPRTDDFGYWGQGTQVTVSS | high polyreactivity
21 | QVQLVESGGGLVQAGGSLRLSCAASGRTFGAYTMGGYRQAPGKDRELVAAISSGTRTNYADSVKGRFTISRDNAKNTVYLQMNSLIPEDTAVYYCAATVLGHNRVYYWGQGTQVTVSS | low polyreactivity
22 | QVQLVESGGGLVQAGGSLRLSCAASGIIFYPYAMGWYRQAPGKERELVAAISQSGGTTSYADSVKGRFTISRDNAKNTVYLQMNSLKPEDTAVYYCARRVSTRKRYYYWGQGTQVTVSS | high polyreactivity

Row | Sequence | polyreactivity (PSR sort gate)
23 | QVQLVESGGGLVQAGGSLRLSCADSGSTLRRNAMGWYRQAPGKERELVAAISRTGASTYYADSVKGRFTISRDNAKNTVYLQMNSLKPEDTAVYYCAARANYIFFGMDYWGQGTQVTVSS | high polyreactivity
24 | QVQLVESGGGLVQAGGSLRLSCAASGSTIDTYAMGWYRQAPGKERELVAGISWSGGSTFYADSVKGRFTISRDNAKNTVYLQMNSLKPEDTAVYYCAKQLWVGVKYDYWGQGTQVTVSS | low polyreactivity
25 | QVQRVESVGGLVQAGGSLRFSCAASGSTFTANAMGWYRQAPGKEREFVAAITQSGGDTYYADSVKGRFTISRDNAKNTVYLQMNSLKPEDSEVYYCAAESAYFVALTHFYTVEFYYWGQGTQGTVSS | low polyreactivity
26 | QVQLVESGGGLVQAGGSLRLSCAASGSIFGFNTMGWYRQAPGKERELVATINWSGGSTYYADSVKGRFTISRDNAKNTVYLQMNSLKPEDTAVYYCNAGPFSGRLFTTYASRGRYDYWGQGTQVTVSS | low polyreactivity
27 | QVQLVESGGGLVQAGGSLRLSCAASGRIFAGNTKGWYRQAPGKERELVAAITSSGGSTYYADSVKGRFTISRDNANTTVYLQMNSLKPEDTAVYYPIVYYVKYYYWGQGTQVTVSS | high polyreactivity
28 | QVQLVESGGGLVQAGGSLRLSCAASGRTFRFYARGWYRQAPGKERELVAAIRNGGRTNYADSVKGRFTISRDNAKISVFLQMNSLKPEDTAVYYCAIQPGISYRHYDYWGQGTQVTVSS | high polyreactivity
29 | QVQLVESGRGLVQAGGSLRLSCAASGYTFSHYAMGWYRQAPGKEMELVAGNTWSGGSTYYADSVKGRFTISRDNAKNTVYLQMNSLKPEDTSVYYCAAKYYWYYSYSGIPLFDYWGQGTQVTVSS | low polyreactivity
30 | QVQLVESGGGLVQAGGSLRLSCAASGSTFAYYTMGWYRQAPGKERELVAAISKSGGSTTYADSVKGRFTISRDNAKNTVYLQMNSLKPEDTAVYYCAAYDRVENYNYWGQGTQVTVSS | high polyreactivity
31 | QVQLVESGGGLVQAGGSLRLSCAASGSTFPLYAMGRYRQAPGKERELVAAITSGGGNTYYADSLKGRFTISRDNAKNTVYLQMNSLKPEDTAVYYCAAVGGYKSYYSYEYDYWGQGTQVTVSS | low polyreactivity
32 | QVQLVESGGGLVQAGGSLRLSCAASGFIFPDDAMGWYSQAPGKERELVASINRSGGSTNYADSVKGRFTISRDHAKNTDYLQMNSLKPEDTAVYYCAPDFSFLGNASARLDYDYWGQGTQVTGSS | low polyreactivity
33 | QVQLVESGGGLVQAGGSLRLICAASGSIFRGYTMGWYRQAPGKERELVATISWSGGSTYYADSVKGRFTISRDNAKNTVYLQMNSLKPEDTAVYYCAAVWYLGIPYDYWGQGTQVTVSS | high polyreactivity
34 | QVQLVESGGGLVQAGGSLRLTCAASGSIFEVNAMGWYRQAPGKERELVAGISNADSTNYADSVKGRFTISRDNAKNTVYLQMNSLKPEDTAVYYCATDLDRDLPKDLLGPEYDYWGQGTQVTVSS | low polyreactivity
35 | QVQLVESGGGLVQAGGSLRLSCAASGRIFAQYAMGWYRQAPGKDRELVADISSGVRTYADSVKGRFTISRDNAKNTVYLQMNSLKPEDTAVYYCNAYYIIFTRNDYWGQGTQVNVSS | low polyreactivity
36 | QVQLVESGGGLLQAGGSLRLSCAASGRIFHYYAMGWYRQAPGKERELVAGIETSGGSTYYADSVNWRFTISRDNAKNTVYLKLNSLKPEDTAVYYCATDQYYSYDYVYWGQGTQVTVSS | low polyreactivity
37 | QVQLVESGGGLVQAGGSLRLSCAASGFTFTYYVMGWYRQAPGKVRELVAAITRGGITDYADSVKGRFTISRDNAKNTVDLQMNSLKPEETAVYYCAAYYSYVLDYDYWGQGTQVTVSS | low polyreactivity
38 | QVQLVESGGGLVQAGGSLRLSCAASGRIFGVNAMGGDRQAPGKERELVAVISSGGSTYYADSVKGRFTISRDNAKNTVYLQMNSLKPEDTAVYYCAAGYLPDYDYWGQGTQVTVSS | low polyreactivity
39 | QVQLVESGGGLDQAGGRLRLSCAASGRTYSVKSMGWYRQAPGKERELVAAITSGGSTYYADSVKGRFTISRDNAKNTVYLQMNSLKPEDTAVYYCNAVGRLRRSRLRMDYWGQGTQVTVSS | high polyreactivity
40 | QVQLVESGGGLVQAGGSLRLSCAASGSTFLVYAMGWYRQAPGKERELVAAITQIDGSTYYADSVKGRFTISRDNAKNTVYLQMNSLKPEDTAVYYCAARYFWTYEYDYWGQGTQVTVSS | low polyreactivity
41 | QVQLVESGGGLVQAGGSLRLSCAASGRIFRVNAMGWYRQAPGKDREFVAAITASSGRTSYADSVKGRFTISRDNAQNTVYLQMNSLKPEDTAVYYCNAAVSQFSHRWRRRITFDYWGQGTQVTVSS | low polyreactivity
42 | QVQLVESGGGLVQAGGSLRLSCAASGSTFRGYAMGWYRQAPGKERELVAAISSRGARTHYADSVKGRFTISRDNAKNTVYLQMNSLKPEDTAVYYCNKRQVFVSTGEYELDYWGQGTQVTVSS | low polyreactivity
43 | QVQLVESGGGLVLAGGRLRLSCAASGFTFGPYAMGWSRQAPGKERELVAAISQSGGRTSYAVSVKGRFTISRDNGKNTVYLQMNSLKPEDTAVYYCAKRANGYRSIYRMDYWGQGTQVTVSS | high polyreactivity

Source: the nanobody polyreactivity screen of Harvey et al. (2022)
